Experimental data published in patent US20170008928A1, “NOVEL PEPTIDES AND PEPTIDE DERIVATIVES AND USES THEREOF” (Novo Nordisk A/S, priority 2015, published 2017).
Starred links: 1 amine or outer side, 2 acyl side, 3 side chain; linkers in the order of their positions; H or OH if unused. Non-standard residues stand in square brackets, D forms with d. Residues, ends and D or L forms follow the SMILES beside them. No end group written: not given here. *: point of attachment. Phe(4-CH2SO3H) = N[C@@H](Cc1ccc(CS(=O)(=O)O)cc1)C(=O)O; sY = N[C@@H](Cc1ccc(OS(=O)(=O)O)cc1)C(=O)O; C18 diacid = O=C(O)CCCCCCCCCCCCCCCCC(=O)*; NMe1Nal = CN[C@@H](Cc1cccc2ccccc12)C(=O)O; γGlu = O=C(O)[C@H](CCC(=O)[*:2])N[*:1]; NMeF = CN[C@@H](Cc1ccccc1)C(=O)O; dNMeD = CN[C@H](CC(=O)O)C(=O)O; Nle = CCCC[C@H](N)C(=O)O; AEEA = NCCOCCOCC(=O)O

T1: human cholecystokinin-2 receptor (CCK-2R) (Homo sapiens, UniProt P32239)
T1 construct: host or cells: 1321-N1 cells (plasma membranes prepared by Evotec AG Hamburg)
T1 sequence (P32239 1-447): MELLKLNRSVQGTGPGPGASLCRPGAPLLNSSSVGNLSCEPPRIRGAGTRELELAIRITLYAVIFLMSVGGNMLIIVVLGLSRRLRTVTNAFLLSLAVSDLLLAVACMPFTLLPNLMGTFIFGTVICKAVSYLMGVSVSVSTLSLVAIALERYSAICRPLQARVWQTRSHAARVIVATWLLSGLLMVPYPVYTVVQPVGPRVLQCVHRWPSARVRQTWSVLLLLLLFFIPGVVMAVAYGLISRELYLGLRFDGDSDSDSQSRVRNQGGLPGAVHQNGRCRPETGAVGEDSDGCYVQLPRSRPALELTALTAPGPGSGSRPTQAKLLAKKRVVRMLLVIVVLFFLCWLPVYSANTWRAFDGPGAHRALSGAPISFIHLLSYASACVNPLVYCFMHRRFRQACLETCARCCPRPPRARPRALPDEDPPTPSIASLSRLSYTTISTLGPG

T2: human cholecystokinin-2 receptor (human), P32239
T2 chain: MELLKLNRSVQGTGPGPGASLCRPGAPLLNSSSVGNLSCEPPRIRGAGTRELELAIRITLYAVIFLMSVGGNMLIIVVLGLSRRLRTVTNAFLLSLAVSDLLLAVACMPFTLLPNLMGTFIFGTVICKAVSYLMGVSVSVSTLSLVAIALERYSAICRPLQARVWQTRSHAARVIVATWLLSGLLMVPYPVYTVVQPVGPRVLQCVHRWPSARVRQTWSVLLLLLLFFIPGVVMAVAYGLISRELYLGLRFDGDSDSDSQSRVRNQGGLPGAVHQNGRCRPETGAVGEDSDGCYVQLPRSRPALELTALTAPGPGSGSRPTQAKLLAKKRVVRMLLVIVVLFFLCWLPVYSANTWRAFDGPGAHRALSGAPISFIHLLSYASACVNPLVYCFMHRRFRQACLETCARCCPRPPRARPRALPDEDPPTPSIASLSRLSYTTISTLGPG

T3: human cholecystokinin-1 receptor (human), P32238
T3 chain: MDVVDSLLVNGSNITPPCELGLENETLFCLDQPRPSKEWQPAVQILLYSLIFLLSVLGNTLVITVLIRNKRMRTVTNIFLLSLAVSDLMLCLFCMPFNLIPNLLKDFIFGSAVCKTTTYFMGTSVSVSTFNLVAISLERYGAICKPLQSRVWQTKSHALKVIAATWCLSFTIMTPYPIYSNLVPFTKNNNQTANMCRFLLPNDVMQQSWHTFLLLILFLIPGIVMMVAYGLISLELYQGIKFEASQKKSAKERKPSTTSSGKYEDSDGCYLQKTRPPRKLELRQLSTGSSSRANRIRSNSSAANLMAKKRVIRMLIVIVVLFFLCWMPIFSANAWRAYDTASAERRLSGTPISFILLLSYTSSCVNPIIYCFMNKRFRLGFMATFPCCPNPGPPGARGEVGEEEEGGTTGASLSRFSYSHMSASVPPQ


Columns and labels:
[1] = target: T1, human cholecystokinin-2 receptor (CCK-2R); experiment: In vitro potency on CCK-2R, whole cell functional assay (IP1 accumulation, IP-One HTRF); assay type: cell-based; settings: 1321-N1 cells stably expressing CCK-2R; IP1 accumulation; highest dose tested 1×10^6 pM; read-out: EC50 (CCK-2R)
[2] = Pharmacokinetic (PK) studies in mini-pig, i.v.; assay type: in vivo; settings: i.v. 5 nmol/kg, female Göttingen mini-pigs, harmonic mean; for half-life: minipig, plasma, iv, read-out: Plasma terminal half-life (T½) (converted)
Protocol: The purpose of this study is to determine the protraction in vivo of a number of CCK derivatives of the invention after intravenous (i.v.) administration to mini-pigs, i.e. the prolongation of their time in the body and thereby their time of action. This was done in pharmacokinetic (PK) studies, where the terminal half-life of the derivative in question was determined. By terminal half-life is generally meant the period of time it takes to halve a certain plasma concentration, measured after the initial distribution phase.
The derivatives of the compounds listed in Table 4 were subjected to PK studies as described in the following.
Female Göttingen mini-pigs obtained from Ellegaard Göttingen Minipigs (Dalmose, Denmark) at approximately 6 months of age and weighing approximately 17 kg were used in the studies. […] Additional blood samples were collected for the derivatives of Examples 2, 4, 7, 8, and 9 at the following time points: 5, 12, 22, 28 and 144 hours. The blood samples were collected into test tubes containing EDTA buffer for stabilisation and kept on ice for max. 20 minutes before centrifugation. The centrifugation procedure to separate plasma was: 4° C., approx. 2500 g for 10 minutes. Plasma was collected and immediately transferred to Micronic tubes stored at −20° C. until assayed.
Plasma was pipetted into Micronic tubes on dry ice, and kept at −20° C. until analysed for plasma concentration of the respective CCK derivative using LC-MS. The plasma samples (including standard curve samples used for quantitation of unknowns and prepared from blank plasma spiked with CCK compound at a concentration range of 0.5-2000 nM for the compounds of Examples 3, 5, 6 or 0.5-1000 nM for the remaining Example compounds) were protein precipitated using three volumes of methanol and centrifuged (16000×g, 4° C., 20 min). The supernatants were injected into the chromatographic system (TurboFlow Transcend 1250 & 10 valve VIM, Thermo Fisher Scientific) which consisted of an initial Turboflow Cyclone purification column 0.5×50 mm (Thermo Fischer Scientific) and an eluting Aeris peptide 3.6 μm XB—C18 column 2.1×50 mm (Phenomenex) kept at 60° C.
The CCK derivatives of Examples 2-9 were eluted using LC-MS method I: A chromatographic gradient system with mobile phases consisting of water with 0.1 v/v % formic acid (mobile phase A) and water/acetonitrile 10/90 v/v with 0.1 v/v % formic acid (mobile phase B). The 2 minute gradient started at 60% mobile phase B and ended at 100% mobile phase B with a flow of 0.4 mL/min. The CCK derivatives were detected and quantified after on-line infusion of the LC flow to the LTQ OrbiTrap Discovery mass spectrometer (Thermo Fischer Scientific) equipped with an electrospray interface operated in negative mode, ESI− (Sheath gas flow rate at 40, Aux gas flow rate at 30, Sweep gas flow rate at 2, Spray voltage at 2.8 kV, Capillary temp. at 275° C., S-lens RF level at −125 and Heater temp. at 325° C.).
The remaining Example compounds were eluted using LC-MS method II: A chromatographic gradient system with mobile phases consisting of water with 1 v/v % formic acid (mobile phase A) and water/acetonitrile 10/90 v/v with 1 v/v % formic acid (mobile phase B). The initial 0.25 minute gradient started at 0% mobile phase B and ended at 70% mobile phase B followed by the second 2.2 minute gradient started at 70% mobile phase B and ended at 75% mobile phase B with a flow of 0.4 mL/min. These CCK derivatives were detected and quantified as described above except that the Spray voltage was 4.0 kV.
Individual plasma concentration-time profiles were analysed by a non-compartmental model in Phoenix v. 6.3 (Pharsight Inc., Mountain View, Calif., USA).

[3] = target: T1, human cholecystokinin-2 receptor (CCK-2R); experiment: In vitro receptor binding to CCK-2R, SPA displacement of [125I]-CCK-8s from plasma membranes
[4] = Chemical stability compared to CCK-8s, 8 mM phosphate pH 7.4, RP-UHPLC; assay type: physicochemical; settings: for Absolute purity loss (pp): 1 mM in 8 mM sodium phosphate pH 7.4
Protocol: The resulting samples were stored in HPLC vials at 5° C. and 37° C. for 2 weeks. The samples were analysed in the beginning of the experiment (t=0), after one week and after two weeks by RP-UHPLC with a mobile phase containing phosphate and with a gradient of acetonitrile. UV detection at 215 nm was used. Samples after one week and two weeks were analysed twice. The calculations were done as described above, and the results are summarised in Table 7 (average of two determinations).

[5] = target: T2, human cholecystokinin-2 receptor …; experiment: cell-based or functional assay
[6] = target: T3, human cholecystokinin-1 receptor …; experiment: cell-based or functional assay
[7] = target: T2, human cholecystokinin-2 receptor …; experiment: SPA competition vs [125I]-CCK-8s, membranes
[8] = target: T3, human cholecystokinin-1 receptor …; experiment: SPA competition vs [125I]-CCK-8s, membranes

| Molecule | EC50 (CCK-2R) [5] | EC50 (CCK-1R) [6] | IC50 [7] | IC50 [8] | further results |
| --- | --- | --- | --- | --- | --- |
| CCCC[C@H](NC(=O)[C@H](Cc1c[nH]c2ccccc12)NC(=O)CNC(=O)[C@H](CC(C)C)NC(=O)[C@H](Cc1ccc(OS(=O)(=O)O)cc1)NC(=O)[C@H](CC(=O)O)NC(=O)COCCOCCNC(=O)COCCOCCNC(=O)CC[C@H](NC(=O)CCCCCCCCCCCCCCCCC(=O)O)C(=O)O)C(=O)N(C)[C@H](CC(=O)O)C(=O)N(C)[C@@H](Cc1cccc2ccccc12)C(N)=O [Example 4, 2-[2-[2-[[2-[2-[2-[[(4S)-4-Carboxy-4-(17-carboxyheptadecanoylamino)butanoyl]amino]ethoxy]ethoxy]acetyl]amino]ethoxy]ethoxy]acetyl-Asp-sTyr-Leu-Gly-Trp-Nle-DMeAsp-Me1Nal-amide] ({C18 diacid-γGlu-AEEA-AEEA}-D[sY]LGW[Nle][dNMeD][NMe1Nal]-NH2) | – | – | – | – | EC50 [1]: 340 nM; Plasma terminal half-life (T½) [2]: 147 h |
| CCCC[C@H](NC(=O)[C@H](Cc1c[nH]c2ccccc12)NC(=O)CNC(=O)[C@H](CC(C)C)NC(=O)[C@H](Cc1ccc(OS(=O)(=O)O)cc1)NC(=O)[C@H](CC(=O)O)NC(=O)CCCCCCCCCCCCCCCCC(=O)O)C(=O)N(C)[C@H](CC(=O)O)C(=O)N(C)[C@@H](Cc1ccccc1)C(N)=O [Example 38, 17-Carboxyheptadecanoyl-Asp-sTyr-Leu-Gly-Trp-Nle-DMeAsp-MePhe-amide] | – | – | – | – | EC50 [1]: > 1000 nM; half-life [2]: 3 h |
| CCCC[C@H](NC(=O)[C@H](Cc1c[nH]c2ccccc12)NC(=O)CNC(=O)[C@H](CC(C)C)NC(=O)[C@H](Cc1ccc(CS(=O)(=O)O)cc1)NC(=O)[C@H](CC(=O)O)NC(=O)COCCOCCNC(=O)COCCOCCNC(=O)CC[C@H](NC(=O)CCCCCCCCCCCCCCCCC(=O)O)C(=O)O)C(=O)N(C)[C@H](CC(=O)O)C(=O)N(C)[C@@H](Cc1ccccc1)C(N)=O [Example 5, 2-[2-[2-[[2-[2-[2-[[(4S)-4-Carboxy-4-(17-carboxyheptadecanoylamino)butanoyl]amino]ethoxy]ethoxy]acetyl]amino]ethoxy]ethoxy]acetyl-Asp-Phe(4-sulfomethyl)-Leu-Gly-Trp-Nle-DMeAsp-MePhe-amide] ({C18 diacid-γGlu-AEEA-AEEA}-D[Phe(4-CH2SO3H)]LGW[Nle][dNMeD][NMeF]-NH2) | – | – | – | – | IC50 [3]: 380 nM; half-life [2]: 106 h |
| CSCC[C@H](NC(=O)[C@H](Cc1ccc(OS(=O)(=O)O)cc1)NC(=O)[C@@H](N)CC(=O)O)C(=O)NCC(=O)N[C@@H](Cc1c[nH]c2ccccc12)C(=O)N[C@@H](CCSC)C(=O)N[C@@H](CC(=O)O)C(=O)N[C@@H](Cc1ccccc1)C(N)=O [CCK-8s, H-Asp-Tyr(SO3H)-Met-Gly-Trp-Met-Asp-Phe-NH2] | – | – | – | – | purity at the start of the experiment (incubation time 0) ([4]; 1 mM in 8 mM sodium phosphate pH 7.4, t=0): 97.94%; Absolute purity loss (pp) ([4]; 5° C., 1 week): −0.04 pp; Absolute purity loss (pp) ([4]; 5° C., 2 weeks): 0.09 pp; Absolute purity loss (pp) ([4]; 37° C., 1 week): 1.42 pp; Absolute purity loss (pp) ([4]; 37° C., 2 weeks): 3.33 pp |
| {C18 diacid-γGlu-AEEA-AEEA}-D[sY]LGWV[DMeAsp][NMeF]-NH2 | 730 nM | 0.14 nM | 6400 nM | 0.31 nM | – |
| D[sY]LGWI[DMeAsp][NMeF]-NH2 [Asp-sTyr-Leu-Gly-Trp-Ile-DMeAsp-MePhe-amide] | > 1000 nM | 0.24 nM | 6100 nM | 0.078 nM | – |
| {C18 diacid-γGlu-AEEA-AEEA}-D[sY]LGWP[DMeAsp][NMeF]-NH2 | 150 nM | 0.17 nM | 1000 nM | 0.19 nM | – |
| {C18 diacid-γGlu-AEEA-AEEA}-D[sY]LGWL[DMeAsp][NMeF]-NH2 | 79 nM | 0.27 nM | 420 nM | – | – |
| {C18 diacid-γGlu-AEEA-AEEA}-D[sY]LGWI[DMeAsp][NMeF]-NH2 | 260 nM | 0.18 nM | 2300 nM | 0.1 nM | – |
